Measured values from publication PMC4606454.

How the values were obtained:
YFP-KYP (Arabidopsis) = YFP-KYP (Arabidopsis) (UniProt Q8GZB6); assay: FRET or BRET; FRET acceptor photobleaching (FRET-AB) in nuclei of N. benthamiana epidermal cells; TrAP-CFP donor, YFP-KYP acceptor; 27-30 cells per experiment
[1] = target: His-MBP-KYP (Arabidopsis) (UniProt Q8GZB6)

Substance	FRET-AB (YFP-KYP (Arabidopsis))	initial velocity of KYP transmethylation of histone 3 (in vitro HMTase reconstitution with 14C-SAM; His-MBP-TrAP pre-incubated with His-GST-KYP at molar ratios 0-10); IC50 as TrAP:KYP molar ratio (TrAP:KYP molar ratio) [1]
CaLCuV TrAP-CFP (natural protein)	2.7	
His-GST-CaLCuV-TrAP (natural protein)		2
His-GST-TGMV-TrAP (natural protein)		2
TGMV TrAP-CFP (natural protein)	3.82	
